B1: ID3146: enhancer fragment, SEQ ID NO: 16 (nucleic acid)
DNA: TGAAAGAGATGGGTGTGTGGGAGTGGGGGAAGCTGAGCTCCAGGCAGACAGCACAGAGCCGCCTTGTCCAACCCAGCCAGGTGCCATGGCAACCAACAAAGGCCCCATTGTCCCGTGTCTGCTGGGCCTTCCTGAGGCTCTGGGGTCAGAGTCCCGGTT
B2: ID1176: enhancer fragment, SEQ ID NO: 22 (nucleic acid)
DNA: ACAAACTAAACACAGACATTTTCTCAATTAGTCATTTTCAGGTTTATTGCCTAAGATGCTAATTGAAATTCAGGGCAGGCAAAAATACATCATTGGCCTTTGTATATCTTTGAAAGGCCTTCTGATGGGACCTTGCTCCGTATAAAGGCTTCTCTTCTCT
B3: ID3547: enhancer fragment, SEQ ID NO: 13 (nucleic acid)
DNA: CGTTCCCCCTTAACAAAAGCCACCTCCTCCCTCCTGAAAGGCACCATTGGTCACCAAAACAAGTCCCCTTTGTCCTCCACCGCAGCTGGAGCCTGGGCCTTCCATCTCCTGGGGGCCAATAAAACCCCAGATCAGCCAATCCTCCCTCCCTGGCTCTGTCA
B4: ID0663: enhancer fragment, SEQ ID NO: 11 (nucleic acid)
DNA: ATAAATTCCGATTAGCCAAGGAAGCTCTGAGTCTAAATACCAGCAAAGCTCAGCCCCTGCAAGTGGGGACGAATTATTTGAAAGGTCATCCTAGAGACACTGAACAAAGGGCCTCTAGCAGCT
modifications: listed as DNA, chemistry not given here
B5: ID0785: enhancer fragment, SEQ ID NO: 19 (nucleic acid)
DNA: AAGAATGAACTGGGCCCAGCTGGGCATTTGCATCAAAGTGCCTCACCAGAGTTCCCAGCTGCTCTGGCAGAGTGCCCAGGCTTGCCCCAGAGCCCAAACAGAATGCTCTTTGAGATGCCTCTGGTTTTCA
modifications: listed as DNA, chemistry not given here
B6: ID1322: enhancer fragment, SEQ ID NO: 27 (nucleic acid)
DNA: GGGCAACAAAGGATGCCATGCAAAGCAGCTCAGAACTTGAGTTGTTTCAACAGATGCTGTTTTATGTTTTGCCAAAGAATGGCCCCTTTTATTTCTGTCATGAATGCAGTCTTTCTTTCAGTTTCTAAATGTTTGCCAGTATTAACCCTAATCCTTATCT
B7: ID4428: enhancer fragment, SEQ ID NO: 18 (nucleic acid)
DNA: TCTAAATGGAGATCCTCCCATAAAGGGAGTTCTGTTTGGGCTTCCCTTGGAAGTCCATTGAAAGCGTTTCACATTTCAATGCTTCTTTACATTCTCCTCTAGAATGAATCTGGAAGGGCCATTTCATTCCAGCCCTATCAGATTTACTACTTCCTCCTGT
B8: CSE006: clustered SOX dimer motif enhancer, SEQ ID NO: 53 (nucleic acid)
DNA: AGGAAGAAGCATGCTGGGTCATTTTTGCCTTGTTTCTAGCTGCATGAATTGAAAAGCCAGGCCCAGGTTCAATGCATCATTCTTGAAGCAGTGAACAAAATCCCTCTTTGTTCCCCAGTGAAACTTATCTCTGAAGAGCTGCACTACTTCCTGTGAGATATAGCCCTGCAGATGTGTCGTGGGAGACCCGCCCGGCTGCACTGCCTTCCATAAAAGTGCAAGAATGGGCACTTTGTACTGCTGGACTGAAAATGACACTCACTCTTCTGATCCCCACTGGGGTTACCAAGTGGGCAAAACTTCCTGCTTAGAGGAGGGGTCATAGACAGCAGGGGGAGTGTGTGATTTTGTTTTGTTCCTTTGTGAATTTGTTTAGCTATTTATAGAGCTAAAGGAGAAAGCAAACGGGCACAATGTAGCACAGTGTTTTTCAAAGTGTATTCCATGGAACCCTTTCGTGGGTTGCAGACCCCAGGGGTGGAGGCAGAGGATGGGGTGGTGACAGCAGCAGGTGCTGTCCAGGGCCTTCTGTCT
B9: ID1244: enhancer fragment, SEQ ID NO: 25 (nucleic acid)
DNA: ACAGCAGCCAGAGGAAGTGGCTGTGTACAGAGAGCTTTTGTGAGAGAAGAGGGGGAGGGGGAAAGAGCAAAGAAAAAGAAGGAAAGAAGAGAGGGAAGAGGCCAGAGACAGAGAAGGCCAGAGCA
modifications: listed as DNA, chemistry not given here
B10: CSE031: clustered SOX dimer motif enhancer, SEQ ID NO: 52 (nucleic acid)
DNA: CAGAGGAGAGAGGAGGTCATTTGGGACCATTTACTCATGCGAGAGTCACTGCCCCATGCTAAGATTTCCCCTAAAAATAAAATGATAAGATAATAACTCATAATGCTCTCCCCAAATCAGTACCACACAGACCCCCCTCTTCTGTTTGCTCAGACCCCCGCTCTCCAGCACAAAGTCTTTATTGGTCTCCCTGCAGGGGTGAAAATAAAGGGGGTTTTGTTCTTCTCCTCCCCCTCCCCCCTCGAAGGGCTGAGTGAGTTTATCTGACACTGCAGCAGTCTTTGTAAACTGAGTGTCCCAGGATAAACGCTCCCTTAAGAGTCGCTTGGCCTGGGACAGAGGGACCCTCTCCAGAGGAGAATGGGGAGCTTGTTCCAATGGTCTTTTAATATGGGGGGCGGGGTGTCACCAAGGACAGGCCTCCAGCACACTCTCACAGAAGGGTCTCTGTCCTGAGGCTACAGTGGAGGGAATTCTTAAAGACACAGATGCTGAAAAGGGGGAAGGAATTTTTTTTTCCCCTAAGGGGAGGGGAGGGAGGTTAGGGCGGGAAGGAGAAGGGGGAGTGGCGAGGACTCCTCATTCCCCAGAACAATTCCAGTTACAACAAGGCGTCTCTAT
B11: ID0456: enhancer fragment, SEQ ID NO: 26 (nucleic acid)
DNA: ATCACAAAGTGGTTAGCATGCAGGGGAGTGCGCCGGTCCCCCGCCTGTATTTGCATGACAAAAGCGCCTGCCCAACGGCTCTCGGTGGCTTTGTTGAGAGCTGCAGCCTCGCTCAGGCTGAGCCTTGGGAATTGTTCCCCGACATTGGTTGTTCCTGGGC
B12: ID2706: enhancer fragment, SEQ ID NO: 12 (nucleic acid)
DNA: CCAATGCCAAAGCAGTTTACATTTTACAGATGCCATGGCAACCGTCAGGAAGTTACCCTGTATGGTCTAAGAGGGGGAGGAACCCTCAGTTCCGGGAATTGCCCGCCCCTTTCCCGGAAACTCATGAATAATCCACCC
B13: ID1737: enhancer fragment, SEQ ID NO: 10 (nucleic acid)
DNA: CAACGTTTTTGGCAGATGCAGCTCTTTCTGAACAGTAAGTCATTGTTGAGTGACATGAATAGGACGAGAGCTACAGAAAATGAAGGTTTCAAAAGATTGTCTAAAACAAAAGTCCTTTCAGTCCCGTATTCAGAGTT
B14: ID0291: enhancer fragment, SEQ ID NO: 24 (nucleic acid)
DNA: CATTCTTTGCAGATAGGAAACAGTTTGCTATCTGAGAGACTGGCCAAAAACCTTACTTTCAAGTAAAATAGGGCTCTATTCATAAGCTCCTACATGTACACAAGTTACTCTTTATACTCCTTTCAGACAATGATAAGAATAGAAACTATTTAATTCAGGA
B15: ID4310: enhancer fragment, SEQ ID NO: 17 (nucleic acid)
DNA: TTGTCCTGCCTTTGAGAACACTGGAAGGGCACTGAAGGCTGACCAGCATGCACCTCACCCCACCTCCTCTCTGTCTCATCCTCAGCCATCTAAGCGGGAGACTCATCAGGCTTAAATTCTCATTCTTATCCAAGATTCTTCTGCTTCAAATGAG
B16: ID3765: enhancer fragment, SEQ ID NO: 21 (nucleic acid)
DNA: B15 DNA
B17: ID0885: enhancer fragment, SEQ ID NO: 14 (nucleic acid)
DNA: CAGCAAAGGCTGCACGCAATGGGGGAGGGGGAAGGAGGGAAGGATATTTCCTCCTTTTTAGATCAGTTTCTTTTCTGAGCACAAGTGCTTTCTGTGTCATCCTAACAATGTAAGAGCCCACTAAGTTTAGGACGCATAATACCGGCCTTTGTTCTACTCC
B18: ID3836: enhancer fragment, SEQ ID NO: 20 (nucleic acid)
DNA: TACCCTTCCAGGGGAGCAGTTTCCTGGCTGTGTCGTCAGATACTGTGGTTTACGCTGTTCCGGAGTCTGGAGGTCTGTGTGCCTTTGATCTCTTTCCCAACTAATTTGCACAGCTGCTGTGGAGGCCCTCATGAATGACCTCTTTCTTTCCTTTCT
B19: ID3548: enhancer fragment, SEQ ID NO: 15 (nucleic acid)
DNA: TCCAAACACTCCCCTGCAACAGATGTACACACAGAGCCCATTGTTTTCTCTAGAAATGTAAACTGCACGTCACAGTTACTCCATACACACCACAAACAGACTCCCTTTGTTCTCAGGATATGTGTTGACACAAGAATATGTCATCCTCTCAGCTCCAGAC
B20: ID1888: enhancer fragment, SEQ ID NO: 23 (nucleic acid)
DNA: GACCTTGCCTCTTTCTGGCCTGTGGCCTTTCTCCTCCCCCAGCTGCTGTCTGGCCGCCCCACCCCCAAGTCTCTGCCACAACCAAAGCTCCTTTGTTGCCTCCCCCTGCCCCGGGCCTCTCCACCTGCTGCTAGCTCAATCCCCTCTTTGTGTGGTTGGT

System: GSC7 cells
Test: Nano-Glo Dual-Luciferase Reporter (Nanoglo DLR) assay of enhancer activity, fold change to mCMV
Format: cell-based, human
Settings: expression fold change of the individual enhancer compared to mCMV
How it was run: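 160 bp enhancer fragments in NanoLuc reporter plasmids were co-transfected 1:10 with PGK-firefly luciferase into GSC7 cells using Lipofectamine LTX/Plus and read two days later. NanoLuc signal was normalised to firefly, then expressed as fold change to the empty mCMV vector.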

Molecule	Fold change (Median) [fold]
B1	37.2
B2	31.3
B3	53.2
B4	59.1
B5	34.3
B6	26.7
B7	36.2
B8	524.3
B9	27.8
B10	249.3
B11	27.2
B12	57.2
B13	77.1
B14	29.0
B15	36.3
B16	31.7
B17	42.6
B18	33.4
B19	40.0
B20	31.1

Reference: patent publication US20260241035A1, “FUNCTIONAL NUCLEIC ACID MOLECULE AND METHOD” (THE UNIVERSITY COURT OF THE UNIVERSITY OF EDINBURGH, priority 2022, published 2026)
